Laboratory results as given in patent US20260144882A1 (BIO THERA SOLUTIONS, published 2026).

Target: T1, human Nectin-4 extracellular antigen hNectin-4-His (human, UniProt Q96NY8 32-349)
T1 construct: C-terminal 8xHis tag included
T1 sequence: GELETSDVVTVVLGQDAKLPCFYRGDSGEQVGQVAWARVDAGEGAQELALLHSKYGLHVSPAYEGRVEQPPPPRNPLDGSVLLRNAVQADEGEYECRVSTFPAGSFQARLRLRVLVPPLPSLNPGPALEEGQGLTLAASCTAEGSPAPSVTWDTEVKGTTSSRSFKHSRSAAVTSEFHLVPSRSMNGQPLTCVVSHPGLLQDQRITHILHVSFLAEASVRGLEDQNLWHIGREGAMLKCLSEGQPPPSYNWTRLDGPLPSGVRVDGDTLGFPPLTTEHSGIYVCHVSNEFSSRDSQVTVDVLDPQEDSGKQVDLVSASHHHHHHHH
Test: ELISA, phage scFv supernatant 1:50
Description: The supernatants were diluted 50-fold, and the binding OD values of the diluted supernatants to hNectin-4-His were measured by ELISA. The samples were serially 3-fold diluted, and the EC₅₀ titer for the binding of the supernatants to the antigen was measured by ELISA. […] The light chain variable region sequence is set forth in SEQ ID NO: 25. The OD value is the measurement of ELISA, and the EC₅₀ value denotes the EC₅₀ value of the binding activity titer of the supernatant to the antigen.

B1: 1F3-2A12 scFv (scFv, V domains shown)
VH: EVQLVESGGGLVQPGGSLRLSCAASGYSFDSYGMSWVRQAPGKGLEWVSGIKPTGASTYYADSVKGRFTISRDNSKNTLYLQMNSLRAEDTAVYYCARAELLAFDVYTASDYWGQGTLVTVSS
VL: DIQMTQSPSSLSASVGDRVTITCRASQGISSYLAWYQQKPGKAPKLLIYAASSLQSGVPSRFSGSGSGTDFTLTISSLQPEDFATYYCQQHYTTPPTFGQGTKVEIKR
notes: phage clone supernatant
B1 was tested, and the OD value was 1.65 OD.

B2: 1F3-2B1 scFv (scFv, V domains shown)
VH: EVQLVESGGGLVQPGGSLRLSCAASGYNFDNYAMSWVRQAPGKGLEWVSGIKPDSATTYYADSVKGRFTISRDNSKNTLYLQMNSLRAEDTAVYYCARAELLAFDVYTASDYWGQGTLVTVSS
VL: DIQMTQSPSSLSASVGDRVTITCRASQGISSYLAWYQQKPGKAPKLLIYAASSLQSGVPSRFSGSGSGTDFTLTISSLQPEDFATYYCQQHYTTPPTFGQGTKVEIKR
notes: phage clone supernatant
Binder B2 has an OD value of 1.62 OD.

B3: 1F3-2B2 scFv (scFv, V domains shown)
VH: EVQLVESGGGLVQPGGSLRLSCAASGYNFYSYGMSWVRQAPGKGLEWVSIISPDGGYKRYADSVKGRFTISRDNSKNTLYLQMNSLRAEDTAVYYCARAELLAFDVYTASDYWGQGTLVTVSS
VL: DIQMTQSPSSLSASVGDRVTITCRASQGISSYLAWYQQKPGKAPKLLIYAASSLQSGVPSRFSGSGSGTDFTLTISSLQPEDFATYYCQQHYTTPPTFGQGTKVEIKR
notes: phage clone supernatant
In the case of B3, the OD value is reported as 1.57 OD.

B4: 1F3-2B2-2 scFv (scFv, V domains shown)
VH: EVQLVESGGGLVQPGGSLRLSCAASGYSFSDFGMSWVRQAPGKGLEWVSRIDPSGWSTSYADSVKGRFTISRDNSKNTLYLQMNSLRAEDTAVYYCARAELLAFDVYTASDYWGQGTLVTVSS
VL: DIQMTQSPSSLSASVGDRVTITCRASQGISSYLAWYQQKPGKAPKLLIYAASSLQSGVPSRFSGSGSGTDFTLTISSLQPEDFATYYCQQHYTTPPTFGQGTKVEIKR
notes: phage clone supernatant
Work on B4 yielded an OD value of 1.59 OD.

B5: 1F3-2B9 scFv (scFv, V domains shown)
VH: EVQLVESGGGLVQPGGSLRLSCAASGFNFDSYAMSWVRQAPGKGLEWVSGIKPHTDDIYYADSVKGRFTISRDNSKNTLYLQMNSLRAEDTAVYYCARAELLAFDVYTASDYWGQGTLVTVSS
VL: DIQMTQSPSSLSASVGDRVTITCRASQGISSYLAWYQQKPGKAPKLLIYAASSLQSGVPSRFSGSGSGTDFTLTISSLQPEDFATYYCQQHYTTPPTFGQGTKVEIKR
notes: phage clone supernatant
For B5, the OD value was 1.57 OD.

B6: 1F3-2C6 scFv (scFv, V domains shown)
VH: EVQLVESGGGLVQPGGSLRLSCAASGDIFTNYSMSWVRQAPGKGLEWVSGIYASGSDKRYADSVKGRFTISRDNSKNTLYLQMNSLRAEDTAVYYCARAELLAFDVYTASDYWGQGTLVTVSS
VL: DIQMTQSPSSLSASVGDRVTITCRASQGISSYLAWYQQKPGKAPKLLIYAASSLQSGVPSRFSGSGSGTDFTLTISSLQPEDFATYYCQQHYTTPPTFGQGTKVEIKR
notes: phage clone supernatant
B6 showed an OD value of 1.38 OD.

B7: 1F3-2C9 scFv (scFv, V domains shown)
VH: EVQLVESGGGLVQPGGSLRLSCAASGFNFGGYGMSWVRQAPGKGLEWVSRISPGDSTPRYADSVKGRFTISRDNSKNTLYLQMNSLRAEDTAVYYCARAELLAFDVYTASDYWGQGTLVTVSS
VL: DIQMTQSPSSLSASVGDRVTITCRASQGISSYLAWYQQKPGKAPKLLIYAASSLQSGVPSRFSGSGSGTDFTLTISSLQPEDFATYYCQQHYTTPPTFGQGTKVEIKR
notes: phage clone supernatant
For B7, the OD value was 1.59 OD.

B8: 1F3-2D2 scFv (scFv, V domains shown)
VH: EVQLVESGGGLVQPGGSLRLSCAASGFNFSSYGMSWVRQAPGKGLEWVSRISPYTGTTHYADSVKGRFTISRDNSKNTLYLQMNSLRAEDTAVYYCARAELLAFDVYTASDYWGQGTLVTVSS
VL: DIQMTQSPSSLSASVGDRVTITCRASQGISSYLAWYQQKPGKAPKLLIYAASSLQSGVPSRFSGSGSGTDFTLTISSLQPEDFATYYCQQHYTTPPTFGQGTKVEIKR
notes: phage clone supernatant
With B8 the OD value was 1.59 OD.

B9: 1F3-2D8 scFv (scFv, V domains shown)
VH: EVQLVESGGGLVQPGGSLRLSCAASGYSFSDYGMSWVRQAPGKGLEWVSRISPSKAVKDYADSVKGRFTISRDNSKNTLYLQMNSLRAEDTAVYYCARAELLAFDVYTASDYWGQGTLVTVSS
VL: DIQMTQSPSSLSASVGDRVTITCRASQGISSYLAWYQQKPGKAPKLLIYAASSLQSGVPSRFSGSGSGTDFTLTISSLQPEDFATYYCQQHYTTPPTFGQGTKVEIKR
notes: phage clone supernatant
With B9 the OD value was 1.56 OD.

B10: 1F3-2E8 scFv (scFv, V domains shown)
VH: EVQLVESGGGLVQPGGSLRLSCAASGYSFSDYGMSWVRQAPGKGLEWVSWISPSKGSASYADSVKGRFTISRDNSKNTLYLQMNSLRAEDTAVYYCARAELLAFDVYTASDYWGQGTLVTVSS
VL: DIQMTQSPSSLSASVGDRVTITCRASQGISSYLAWYQQKPGKAPKLLIYAASSLQSGVPSRFSGSGSGTDFTLTISSLQPEDFATYYCQQHYTTPPTFGQGTKVEIKR
notes: phage clone supernatant
B10 showed an OD value of 1.56 OD.

B11: 1F3-2E12 scFv (scFv, V domains shown)
VH: EVQLVESGGGLVQPGGSLRLSCAASGGNFTNSGMSWVRQAPGKGLEWVSGIKWSSDETYYADSVKGRFTISRDNSKNTLYLQMNSLRAEDTAVYYCARAELLAFDVYTASDYWGQGTLVTVSS
VL: DIQMTQSPSSLSASVGDRVTITCRASQGISSYLAWYQQKPGKAPKLLIYAASSLQSGVPSRFSGSGSGTDFTLTISSLQPEDFATYYCQQHYTTPPTFGQGTKVEIKR
notes: phage clone supernatant
Work on B11 yielded an OD value of 1.52 OD.

B12: 1F3-2F1 scFv (scFv, V domains shown)
VH: EVQLVESGGGLVQPGGSLRLSCAASGDIFTGYSMSWVRQAPGKGLEWVSGIYQTGSNTRYADSVKGRFTISRDNSKNTLYLQMNSLRAEDTAVYYCARAELLAFDVYTASDYWGQGTLVTVSS
VL: DIQMTQSPSSLSASVGDRVTITCRASQGISSYLAWYQQKPGKAPKLLIYAASSLQSGVPSRFSGSGSGTDFTLTISSLQPEDFATYYCQQHYTTPPTFGQGTKVEIKR
notes: phage clone supernatant
In the case of B12, the OD value is reported as 1.02 OD.

B13: 1F3-2F3 scFv (scFv, V domains shown)
VH: EVQLVESGGGLVQPGGSLRLSCAASGFNFSDYGMSWVRQAPGKGLEWVSRIDWDGGNTRYADSVKGRFTISRDNSKNTLYLQMNSLRAEDTAVYYCARAELLAFDVYTASDYWGQGTLVTVSS
VL: DIQMTQSPSSLSASVGDRVTITCRASQGISSYLAWYQQKPGKAPKLLIYAASSLQSGVPSRFSGSGSGTDFTLTISSLQPEDFATYYCQQHYTTPPTFGQGTKVEIKR
notes: phage clone supernatant
B13 showed an OD value of 1.57 OD.

B14: 1F3-2F6 scFv (scFv, V domains shown)
VH: EVQLVESGGGLVQPGGSLRLSCAASGFTFSDYGMSWVRQAPGKGLEWVSRISQYGGGIRYADSVKGRFTISRDNSKNTLYLQMNSLRAEDTAVYYCARAELLAFDVYTASDYWGQGTLVTVSS
VL: DIQMTQSPSSLSASVGDRVTITCRASQGISSYLAWYQQKPGKAPKLLIYAASSLQSGVPSRFSGSGSGTDFTLTISSLQPEDFATYYCQQHYTTPPTFGQGTKVEIKR
notes: phage clone supernatant
B14 was tested, and the OD value was 1.52 OD.

B15: 1F3-2G9 scFv (scFv, V domains shown)
VH: EVQLVESGGGLVQPGGSLRLSCAASGFTFGGYGMSWVRQAPGKGLEWVSWISAWDGSIYYADSVKGRFTISRDNSKNTLYLQMNSLRAEDTAVYYCARAELLAFDVYTASDYWGQGTLVTVSS
VL: DIQMTQSPSSLSASVGDRVTITCRASQGISSYLAWYQQKPGKAPKLLIYAASSLQSGVPSRFSGSGSGTDFTLTISSLQPEDFATYYCQQHYTTPPTFGQGTKVEIKR
notes: phage clone supernatant
For B15, the OD value was 1.38 OD.

B16: 1F3-2G10 scFv (scFv, V domains shown)
VH: EVQLVESGGGLVQPGGSLRLSCAASGFNFSNYGMSWVRQAPGKGLEWVSRIKPTDGSTHYADSVKGRFTISRDNSKNTLYLQMNSLRAEDTAVYYCARAELLAFDVYTASDYWGQGTLVTVSS
VL: DIQMTQSPSSLSASVGDRVTITCRASQGISSYLAWYQQKPGKAPKLLIYAASSLQSGVPSRFSGSGSGTDFTLTISSLQPEDFATYYCQQHYTTPPTFGQGTKVEIKR
notes: phage clone supernatant
B16 was tested, and the OD value was 1.54 OD.
